Measurements as given in PMC10143966, “The Replicative DnaE Polymerase of Bacillus subtilis Recruits the Glycolytic Pyruvate Kinase (PykA) When Bound to Primed DNA Templates” (Life, 2023).
Where two headings read alike, the source gives them in different places.

How the values were obtained:
[1] = molecular target: T1, B. subtilis DnaE polymerase (B. subtilis, UniProt O34623 1-1115); experiment: SPR; 5'-biotinylated primed DNA probe (30 mer annealed to 110 mer) immobilised on a streptavidin SA chip (about 100 RU); DnaE (35 nM) added with increasing concentrations of PykA (0-1000 nM), CAT or PEPut; Biacore T200, 200 uL/min, 25 °C, 25 mM NaCl, 25 mM MgCl2, 150 mM Tris-HCl pH 7.5, 1 mM DTT; maximum RU values fitted to a one site-specific binding curve
T1 construct: DnaE DNA polymerase, Bacillus subtilis; also called replicative DnaE polymerase; lagging strand DNA polymerase
T1 sequence (looked up): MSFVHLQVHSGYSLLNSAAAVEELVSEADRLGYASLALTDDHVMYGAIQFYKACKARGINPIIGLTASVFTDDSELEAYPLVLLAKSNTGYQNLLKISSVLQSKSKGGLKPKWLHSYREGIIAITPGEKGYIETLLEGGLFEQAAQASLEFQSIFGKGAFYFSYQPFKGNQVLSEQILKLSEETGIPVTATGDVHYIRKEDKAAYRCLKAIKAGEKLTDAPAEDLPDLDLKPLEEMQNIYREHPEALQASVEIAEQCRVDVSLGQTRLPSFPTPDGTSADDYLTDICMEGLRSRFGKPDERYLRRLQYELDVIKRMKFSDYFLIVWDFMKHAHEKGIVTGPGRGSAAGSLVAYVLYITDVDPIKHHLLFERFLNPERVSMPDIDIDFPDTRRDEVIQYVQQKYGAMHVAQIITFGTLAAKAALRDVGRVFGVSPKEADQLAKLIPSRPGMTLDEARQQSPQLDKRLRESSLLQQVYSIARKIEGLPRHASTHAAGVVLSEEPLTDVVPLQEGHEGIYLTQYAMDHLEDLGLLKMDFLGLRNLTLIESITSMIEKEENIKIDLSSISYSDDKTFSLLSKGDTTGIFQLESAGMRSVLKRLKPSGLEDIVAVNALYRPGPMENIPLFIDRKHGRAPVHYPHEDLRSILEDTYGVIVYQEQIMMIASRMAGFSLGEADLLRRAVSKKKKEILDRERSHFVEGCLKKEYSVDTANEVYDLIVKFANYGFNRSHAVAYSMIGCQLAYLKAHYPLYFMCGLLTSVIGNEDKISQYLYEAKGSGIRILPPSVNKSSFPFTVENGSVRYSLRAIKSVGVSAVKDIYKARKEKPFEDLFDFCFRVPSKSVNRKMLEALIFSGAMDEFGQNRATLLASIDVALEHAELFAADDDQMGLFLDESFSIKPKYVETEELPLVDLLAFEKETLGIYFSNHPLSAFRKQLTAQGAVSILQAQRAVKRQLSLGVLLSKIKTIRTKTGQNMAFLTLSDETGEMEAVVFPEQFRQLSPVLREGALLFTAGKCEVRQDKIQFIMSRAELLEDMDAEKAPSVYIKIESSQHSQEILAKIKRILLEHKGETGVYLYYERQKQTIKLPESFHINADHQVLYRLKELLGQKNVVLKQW

PykA CAT domain = molecular target: T2, PykA CAT domain (Bacillus subtilis, UniProt P80885 2-473); experiment: SPR; no DnaE; 25 mM MgCl2; SPR (Biacore T200, SA chip): 25 mM NaCl, 25 mM MgCl2, 150 mM Tris-HCl pH 7.5, 1 mM DTT, 25 °C; conditions: protein: recombinant; tags: His-MBP removed by TEV; label: 5' biotin on 110 mer (strand 1); 30 mer primer annealed to 110 mer template, ssDNA on both sides; 5' A of the primer may be near/at the CCCCCT junction
T2 sequence: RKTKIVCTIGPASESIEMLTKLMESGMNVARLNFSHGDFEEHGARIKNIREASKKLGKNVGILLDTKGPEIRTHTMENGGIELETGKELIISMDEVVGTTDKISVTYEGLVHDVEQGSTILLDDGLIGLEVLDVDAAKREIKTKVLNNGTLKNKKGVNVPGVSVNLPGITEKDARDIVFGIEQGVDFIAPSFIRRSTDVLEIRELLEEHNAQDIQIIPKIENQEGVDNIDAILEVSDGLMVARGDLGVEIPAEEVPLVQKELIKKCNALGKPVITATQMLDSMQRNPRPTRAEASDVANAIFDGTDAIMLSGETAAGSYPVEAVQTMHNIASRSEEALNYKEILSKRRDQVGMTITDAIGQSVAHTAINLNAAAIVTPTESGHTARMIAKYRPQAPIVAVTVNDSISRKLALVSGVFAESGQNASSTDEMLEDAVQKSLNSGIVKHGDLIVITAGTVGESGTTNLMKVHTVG

PykA pyruvate kinase = molecular target: T3, PykA pyruvate kinase (Bacillus subtilis, UniProt P80885 1-585); experiment: as above; conditions: protein: recombinant; tags: His-MBP removed by TEV; chain copies: 4; label: 5' biotin on 110 mer (strand 1); 30 mer primer annealed to 110 mer template, ssDNA on both sides; 5' A of the primer may be near/at the CCCCCT junction
T3 sequence: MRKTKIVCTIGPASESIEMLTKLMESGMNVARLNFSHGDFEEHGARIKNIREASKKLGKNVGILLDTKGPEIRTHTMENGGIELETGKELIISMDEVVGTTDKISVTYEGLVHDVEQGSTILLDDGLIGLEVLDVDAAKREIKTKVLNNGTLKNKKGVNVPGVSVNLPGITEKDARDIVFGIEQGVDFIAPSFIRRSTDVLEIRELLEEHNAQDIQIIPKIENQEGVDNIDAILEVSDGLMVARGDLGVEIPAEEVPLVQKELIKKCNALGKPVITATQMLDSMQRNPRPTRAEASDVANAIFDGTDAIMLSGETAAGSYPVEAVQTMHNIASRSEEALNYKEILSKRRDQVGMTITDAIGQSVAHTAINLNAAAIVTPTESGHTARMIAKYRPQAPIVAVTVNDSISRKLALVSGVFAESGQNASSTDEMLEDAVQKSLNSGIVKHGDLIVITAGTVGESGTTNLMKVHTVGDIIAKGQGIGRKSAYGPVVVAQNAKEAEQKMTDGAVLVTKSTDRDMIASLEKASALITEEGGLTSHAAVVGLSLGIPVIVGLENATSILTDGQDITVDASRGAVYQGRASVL

PykA PEPut domain = molecular target: T4, PykA PEPut domain (Bacillus subtilis, UniProt P80885 494-585); experiment: as above; conditions: protein: recombinant; tags: His-MBP removed by TEV; label: 5' biotin on 110 mer (strand 1); 30 mer primer annealed to 110 mer template, ssDNA on both sides; 5' A of the primer may be near/at the CCCCCT junction
T4 sequence: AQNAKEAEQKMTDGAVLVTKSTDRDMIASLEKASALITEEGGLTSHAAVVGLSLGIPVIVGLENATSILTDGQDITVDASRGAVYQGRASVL

DnaE polymerase = DnaE polymerase (Bacillus subtilis, UniProt O34623 1-1115); experiment: SPR; 25 mM MgCl2; DnaE 0-700 nM; SPR (Biacore T200, SA chip): 25 mM NaCl, 25 mM MgCl2, 150 mM Tris-HCl pH 7.5, 1 mM DTT, 25 °C; conditions: protein: recombinant; label: 5' biotin on 110 mer (strand 1); 30 mer primer annealed to 110 mer template, ssDNA on both sides; 5' A of the primer may be near/at the CCCCCT junction
[2] = molecular target: DnaE polymerase;PykA CAT domain (Bacillus subtilis;Bacillus subtilis, UniProt O34623;P80885 1-1115;2-473, |); experiment: SPR; CAT titrated onto DnaE (35 nM) on DNA; Kd is for CAT to DnaE-DNA complex; 25 mM MgCl2; SPR (Biacore T200, SA chip): 25 mM NaCl, 25 mM MgCl2, 150 mM Tris-HCl pH 7.5, 1 mM DTT, 25 °C; conditions: protein: recombinant;recombinant; tags: ;His-MBP removed by TEV; label: 5' biotin on 110 mer (strand 1); 30 mer primer annealed to 110 mer template, ssDNA on both sides; 5' A of the primer may be near/at the CCCCCT junction
[3] = molecular target: DnaE polymerase;PykA pyruvate kinase (Bacillus subtilis;Bacillus subtilis, UniProt O34623;P80885 1-1115;1-585, |); experiment: SPR; PykA titrated (0-1000 nM) onto DnaE (35 nM) on DNA; Kd is for PykA to DnaE-DNA complex; 25 mM MgCl2; SPR (Biacore T200, SA chip): 25 mM NaCl, 25 mM MgCl2, 150 mM Tris-HCl pH 7.5, 1 mM DTT, 25 °C; conditions: protein: recombinant;recombinant; tags: ;His-MBP removed by TEV; copies: 1;4; label: 5' biotin on 110 mer (strand 1); 30 mer primer annealed to 110 mer template, ssDNA on both sides; 5' A of the primer may be near/at the CCCCCT junction

Molecule: CAT domain of B. subtilis PykA (domain or fragment)
- Kd [1]: 7.33 nM

B1: primed probe, 30 mer on 5'-biotinylated 110 mer (mixed)
DNA 1: CACACACACACACACACACACACACACACACACACACACACACACACACACACACACACCCCCTTTAAAAAAAAAAAAAAAAGCCAAAAGCAGTGCCAAGCTTGCATGCC
DNA 2: AGGGGGTGTGTGTGTGTGTGTGTGTGTGTG
- binding result (PykA CAT domain): no binding
- binding result (PykA pyruvate kinase): no binding
- binding result (PykA PEPut domain): no binding
- Kd (DnaE polymerase): 146 nM
- Kd [2]: 7.33 nM
- Kd [3]: 14.6 nM

B2: B. subtilis pyruvate kinase PykA, full-length, wild type (enzyme, UniProt P80885 1-585, looked up)
chain: T3 sequence
notes: PykA pyruvate kinase, Bacillus subtilis; 1755 bp pykA fragment amplified from genomic DNA, cloned into p2CT; the same vector gives an N-terminal tag for PEPut; Tetramer: legends give 16 nM monomers as 4 nM tetramers; also called full-length PykA; wild-type PykA; source: E. coli Rosetta (DE3), purified (HisTrap IMAC, TEV cleavage, reverse IMAC, Superdex 200 gel filtration)
- Kd ([1]; both partners purified): 14.6 nM
